This is an account of results in EP1644415B1 (Genetics Institute, LLC, dated 2010).

B2: human IL-22R extracellular domain-Fc fusion homodimer (Fc fusion)
chain: HAPEDPSDLLQHVKFQSSNFENILTWDSGPEGTPDTVYSIEYKTYGERDWVAKKGCQRITRKSCNLTVETGNLTELYYARVTAVSAGGRSATKMTDRFSSLQHTTLKPPDVTCISKVRSIQMIVHPTPTPIRAGDGHRLTLEDIFHDLFYHLELQVNRTYQMHLGGKQREYEFFGLTPDTEFLGTIMICVPTWAKESAPYMCRVKTLPDRTWTAGSGSGSG
notes: extracellular domain; Used as CHO conditioned medium, not purified; also called IL-22R-Fc; IL-22RECD-Fc; not shown: human IgG1 Fc
B3: human IL-22 with N terminal His/Flag tag (ligand)
chain: GSGHHHHHHGSGDYKDDDDKAPISSHCRLDKSNFQQPYITNRTFMLAKEASLADNNTDVRLIGEKLFHGVSMSERCYLMKQVLNFTLEEVLFPQSDRFQPYMQEVVPFLARLSNRLSTCHIEGDDLHIQRNVQKLKDTVKKLGESGEIKAIGELDLLFMSLRNACI
modifications: biotinylated with EZ-Link Sulfo-NHS-Biotin where used in ELISA (bio-IL-22); not biotinylated in Biacore and cell assays
notes: Made in CHO cells, extensively glycosylated; also called hIL-22; huIL-22
B4: human IL-22 binding protein-Fc fusion (Fc fusion)
chain: TQSTHESLKPQRVQFQSRNFHNILQWQPGRALTGNSSVYFVQYKIYGQRQWKNKEDCWGTQELSCDLTSETSDIQEPYYGRVRAASAGSYSEWSMTPRFTPWWETKIDPPVMNITQVNGSLLVILHAPNLPYRYQKEKNVSIEDYYELLYRVFIINNSLEKEQKVYEGAHRAVEIEALTPHSSYCVVAEIYQPMLDRRSQRSEERCVEIPAGSGSGSG
notes: Fc fusion homodimer, used as CHO conditioned medium; also called IL-22BP-Fc; hIL-22BP-Fc; not shown: human IgG1 Fc

Test [1] deals with B2. In words: ELISA, IL-10R2-Fc added to captured IL-22R-Fc before bio-IL-22 (Figure 9A). A general note: In an ELISA, binding on a coated surface is turned into a signal by an enzyme label.
The target in test [2] is B3. In words: ELISA, bio-IL-22 on streptavidin plates, IL-22R-Fc titrated (Figure 6B).
Test [3] concerns the target B2. The test can be described thus: ELISA, IL-22R-Fc captured on anti-human IgG, bio-IL-22 titrated (Figure 6A).
Test [4] addresses T1, human IL-22R-Fc/IL-10R2-Fc heterodimer (human, UniProt Q8N6P7 16-228; Q08334 20-220).
T1 construct: extracellular domain; Used as conditioned medium of CHO cells co-expressing both fusions; also called IL-22R/IL-10R2-Fc heterodimer; IL-22R-Fc/IL-10R2-Fc complex; not shown: human IgG1 Fc
T1 sequence 1: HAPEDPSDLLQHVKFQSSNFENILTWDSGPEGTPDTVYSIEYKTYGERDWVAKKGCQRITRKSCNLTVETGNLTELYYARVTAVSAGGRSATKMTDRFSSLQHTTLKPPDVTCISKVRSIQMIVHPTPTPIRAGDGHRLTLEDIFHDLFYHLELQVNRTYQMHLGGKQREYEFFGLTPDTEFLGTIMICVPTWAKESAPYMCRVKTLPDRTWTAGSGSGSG
T1 sequence 2: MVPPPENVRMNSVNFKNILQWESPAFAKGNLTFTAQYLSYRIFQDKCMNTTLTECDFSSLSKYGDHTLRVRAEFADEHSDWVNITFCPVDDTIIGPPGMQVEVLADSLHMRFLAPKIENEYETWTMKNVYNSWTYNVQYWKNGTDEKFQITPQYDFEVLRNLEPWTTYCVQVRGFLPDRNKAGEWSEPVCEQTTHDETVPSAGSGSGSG
In words: ELISA, 50 ng/ml total Fc captured on anti-human IgG, bio-IL-22 titrated (Figure 8A).

The target in test [5] is T1, human IL-22R-Fc/IL-10R2-Fc heterodimer. In words: ELISA, 50 ng/ml total Fc of co-expressing CHO CM captured, bio-IL-22 5 ng/ml, no antibody (Figure 10C).
For test [6], the target named is B4. In words: Biacore, IL-22BP-Fc from conditioned medium captured by anti-human IgG, IL-22 injected, 1:1 model. For orientation: Surface plasmon resonance follows binding to a sensor surface in real time, without labels.
Test [7] has as its target T1, human IL-22R-Fc/IL-10R2-Fc heterodimer. The test can be described thus: Biacore, receptor-Fc from conditioned medium captured by anti-human IgG, IL-22 injected, 1:1 model.
Test [8] addresses B2. The test is described as above.
Test [9] addresses B3. In words: competition ELISA: IL-22BP-Fc pre-incubated with bio-IL-22 30 ng/ml, binding to captured IL-22R-Fc (Figure 11A).
Test [10] concerns the target B3. In words: competition ELISA: IL-22BP-Fc pre-incubated with bio-IL-22 5 ng/ml, binding to captured IL-22R/IL-10R2-Fc heterodimer (Figure 11B).

B1: human IL-10R2 extracellular domain-Fc fusion homodimer (Fc fusion)
chain: MVPPPENVRMNSVNFKNILQWESPAFAKGNLTFTAQYLSYRIFQDKCMNTTLTECDFSSLSKYGDHTLRVRAEFADEHSDWVNITFCPVDDTIIGPPGMQVEVLADSLHMRFLAPKIENEYETWTMKNVYNSWTYNVQYWKNGTDEKFQITPQYDFEVLRNLEPWTTYCVQVRGFLPDRNKAGEWSEPVCEQTTHDETVPSAGSGSGSG
notes: extracellular domain; Used as CHO conditioned medium, not purified; also called IL-10R2-Fc; IL-10R2ECD-Fc; not shown: human IgG1 Fc
With B1, in test [1], the binding result is listed as “no binding”.
B2: the EC50 (in general, the concentration that produces a half-maximal response) in [2] worked out at 0.006 mg/L.
The molecule B3 had a concentration giving a half-maximal response (EC50) in [3] of 0.02 mg/L. The fold less bio-IL-22 needed for a comparable signal than with immobilized IL-22R-Fc homodimer in test [4] turned out to be 8 fold. The molecule also registered an ELISA signal (absorbance at 450 nm) in test [5] of 2.5. For the same molecule, the values for the dissociation constant (Kd) in [6], in [7] and in test [8] were 3.37 nM, 1.48 nM and 41 nM, respectively.
As for B4, the concentration for half-maximal inhibition (IC50) (as a rule, the concentration that inhibits the measured activity by half) in test [9] worked out at 4 nM; in test [10] it was 2 nM.
